Assay results taken from patent US20260226152A1 (GlaxoSmithKline, published 2026).
Like-named read-outs stand apart in the source and are kept apart here.

T1: Human IL-18 (human, UniProt Q14116 37-193)
T1 sequence: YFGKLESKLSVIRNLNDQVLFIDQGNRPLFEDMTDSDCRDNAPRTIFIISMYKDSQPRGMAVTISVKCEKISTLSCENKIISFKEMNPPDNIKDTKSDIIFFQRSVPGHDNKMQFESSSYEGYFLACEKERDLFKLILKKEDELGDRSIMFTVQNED

T2: Cynomolgus monkey IL-18 (Rhesus monkey (identical to cynomolgus …, UniProt Q9BGI5 37-193))
T2 sequence: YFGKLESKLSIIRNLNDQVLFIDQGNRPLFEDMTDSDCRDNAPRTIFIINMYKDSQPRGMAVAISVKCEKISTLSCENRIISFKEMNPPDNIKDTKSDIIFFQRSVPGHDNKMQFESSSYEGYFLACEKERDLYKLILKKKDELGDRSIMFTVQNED

T3: Human IL-23 (human, UniProt Q9NPF7 20-189; P29460 23-328)
T3 construct: Disulphide-linked p19/p40 heterodimer, recombinant, made in-house; also called recombinant human IL-23; rhIL-23
T3 sequence 1: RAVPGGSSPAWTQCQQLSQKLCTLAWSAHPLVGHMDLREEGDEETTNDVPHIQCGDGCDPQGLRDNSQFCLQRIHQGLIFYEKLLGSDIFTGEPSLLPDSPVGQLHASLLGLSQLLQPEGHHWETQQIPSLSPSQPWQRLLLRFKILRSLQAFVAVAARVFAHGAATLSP
T3 sequence 2: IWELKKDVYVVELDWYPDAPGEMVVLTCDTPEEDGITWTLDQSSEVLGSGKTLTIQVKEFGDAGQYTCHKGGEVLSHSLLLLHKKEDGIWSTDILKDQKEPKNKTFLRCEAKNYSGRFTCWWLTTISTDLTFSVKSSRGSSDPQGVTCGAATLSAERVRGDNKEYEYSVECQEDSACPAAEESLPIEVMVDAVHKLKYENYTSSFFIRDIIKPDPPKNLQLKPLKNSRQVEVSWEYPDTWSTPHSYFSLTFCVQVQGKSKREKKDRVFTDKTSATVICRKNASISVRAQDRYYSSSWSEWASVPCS


What was measured:
[1] = molecular target: T1, Human IL-18; experiment: cell-based or functional assay
[2] = molecular target: T1, Human IL-18; experiment: cell-based or functional assay; remark: listed apart in the source
[3] = molecular target: T2, Cynomolgus monkey IL-18; experiment: cell-based or functional assay
[4] = molecular target: T3, Human IL-23; experiment: SPR (Biacore), antibody captured on Protein A/G, cytokine as analyte, 25 C, 1:1 fit, n=1
Protocol: (§1) A heterodimeric bsAb, alongside anti-IL-18 and anti-IL-23 common light chain control bispecific antibodies, were assessed for binding to human and cyno IL-18 and IL-23, using the Biacore 8K and T200 (Cytiva) surface plasmon resonance (SPR) instruments. All reagents were generated recombinantly in-house with the exception of Rhesus monkey IL-18 which was purchased from R&D systems (Cat #2548-RM-025/CF). Rhesus and cynomolgus monkey amino acid sequences are identical. Therefore, the protein will be referred to as cynomolgus monkey IL-18.
(§2) Heterodimeric bsAb, anti-IL-18 and anti-IL-23 common light chain bispecific control molecules were assessed for binding to recombinant human and cynomolgus monkey IL-18 and IL-23 using the Biacore 8K and T200 (Cytiva) SPR instruments. The antibodies were captured onto Protein A/G, which was immobilised onto flow cell 2 of 8 channels (Biacore 8K) or flow cells 2, 3 and 4 (Biacore T200) of a CM5 series S sensor chip by primary amine coupling. The IL-18 or IL-23 analytes were passed over the captured antibodies at varying concentrations between 0.04-25 nM. The association phase was for 240 seconds at 30 μl/min, followed by a dissociation step of up to 1200 seconds. A 0 nM (i.e., buffer alone) injection was used to double reference the binding curves. Regeneration of the chip surface between cycles was carried out using 50 mM NaOH. The assay was run at 25° C. in HBS-EP⁺ buffer. Biacore 8K control software version 3.0 was used to run the experiment. Data was analysed using Biacore 8K Insight evaluation software version 3.0. Biacore T200 control software version 1.0 was used to run the experiment. Data was analysed using Biacore T200 evaluation software version 2.0. Affinities and kinetics were determined using the 1:1 kinetic fit inherent to the software where possible. All affinity values generated using both instruments were combined to determine geometric mean values.

[5] = molecular target: T1, Human IL-18; experiment: as above
Protocol: as §1, §2

[6] = molecular target: T3, Human IL-23; experiment: cell-based or functional assay
[7] = molecular target: T1, Human IL-18; experiment: cell-based or functional assay; remark: listed apart in the source
[8] = molecular target: T3, Human IL-23; experiment: cell-based or functional assay; remark: listed apart in the source

Binder | IC50 (pM, Mean), neutralisation of human IL-18-induced IFNγ secretion by KG-1 cells [1] [pM] | pIC50 (GeoMean), neutralisation of human IL-18-induced IFNγ secretion by KG-1 cells [1] | IC50 (pM, Mean), neutralisation of human IL-18-induced IFNγ secretion by KG-1 cells [2] [pM] | pIC50 (GeoMean), neutralisation of human IL-18-induced IFNγ secretion by KG-1 cells [2] | IC50 (pM, Mean), neutralisation of cynomolgus IL-18-induced IFNγ secretion by KG-1 cells [3] [pM] | pIC50 (GeoMean), neutralisation of cynomolgus IL-18-induced IFNγ secretion by KG-1 cells [3] | Kd [4] [nM] | Kd [5] [nM] | IC50 Heterodimeric bsAb (% of Parent IL-23 control 2), IL-23-induced mouse IL-17A in mouse splenocytes [6] | IC50 Heterodimeric bsAb (pM), inhibition of human IL-23-induced mouse IL-17A secretion in mouse splenocytes [6] [pM] | IC50 Heterodimeric bsAbs (% of Parent IL-18 control 3), LPS + IL12-induced IFN-γ in human whole blood [7] | IC50 Heterodimeric bsAbs (nM), inhibition of LPS + IL12-induced IFN-γ in human whole blood [7] [nM] | IC50 Heterodimeric bsAbs (% of Parent IL-23 control 2), IL-23-induced pSTAT3 in T cells of human whole blood [8] | IC50 Heterodimeric bsAbs (pM), inhibition of IL-23-induced pSTAT3 in CD3+CD161+ T cells of human whole blood [8] [pM]
IL-18 control 2 (antibody, V domains shown) VH: QVQLVQSGAEVKKPGASVKVSCKVSGEISTGYYFHWVRQAPGKGLEWMGRIDPEDDSTKYAERFKDRVTMTEDTSTDTAYMELSSLRSEDTAVYYCTTWRIYRDSSGRPFYVMDAWGQGTLVTVSS VL: DIQMTQSPSSVSASVGDRVTITCLASEDIYTYLTWYQQKPGKAPKLLIYGANKLQDGVPSRFSGSGSGTDYTLTISSLQPEDFATYYCLQGSKFPLTFGQGTKLEIK | 39.8 | 10.4 | 41 | 10.4 | 64.6 | 10.2 | – | – | – | – | – | – | – | –
Heterodimeric bsAb 1 (bispecific antibody, human IgG1, kappa, Het-mAb format: anti-IL-18 mAb on ZA and anti-IL-23 mAb (risankizumab) on ZB, with Fc heterodimerisation and silencing mutations; Expressed transiently in HEK293 6E cells) heavy 1: QVQLVQSGAEVKKPGASVKVSCKVSGEISTGYYFHWVRQAPGKGLEWMGRIDPEDDSTKYAERFKDRVTMTEDTSTDTAYMELSSLRSEDTAVYYCTTWRIYRDSSGRPFYVMDAWGQGTLVTVSSASTKGPSVFPLAPSSKSTSGGTAALGCEVTDYFPEPVTVSWNSGALTSGVHTFPAVLESSGLYSLSSVVTVPSSSLGTQTYICNVNHKPSNTKVDKKVEPKSCDKTHTCPPCPAPELAGAPSVFLFPPKPKDTLMISRTPEVTCVVVDVSHEDPEVKFNWYVDGVEVHNAKTKPREEQYNSTYRVVSVLTVLHQDWLNGKEYKCKVSNKALPAPIEKTISKAKGQPREPQVYVYPPSRDELTKNQVSLTCLVKGFYPSDIAVEWESNGQPENNYKTTPPVLDSDGSFALVSKLTVDKSRWQQGNVFSCSVMHEALHNHYTQKSLSLSPGK light 1: DIQMTQSPSSVSASVGDRVTITCLASEDIYTYLTWYQQKPGKAPKLLIYGANKLQDGVPSRFSGSGSGTDYTLTISSLQPEDFATYYCLQGSKFPLTFGQGTKLEIKRTVAAPSVFIFPPSDERLKSGTASVVCLLNNFYPREAKVQWKVDNALQSGNSQESVTEQDSKDSTYSLSSRLTLSKADYEKHKVYACEVTHQGLSSPVTKSFNRGEC heavy 2: QVQLVQSGAEVKKPGSSVKVSCKASGYTFTDQTIHWMRQAPGQGLEWIGYIYPRDDSPKYNENFKGKVTITADKSTSTAYMELSSLRSEDTAVYYCAIPDRSGYAWFIYWGQGTLVTVSSASTKGPSVFPLAPSSKSTSGGTAALGCRVKDYFPEPVTVSWNSGALTSGVHTFPAVLQSSGLYSLSSVVTVPSSSLGTQTYICNVNHKPSNTKVDKKVEPKSCDKTHTCPPCPAPELAGAPSVFLFPPKPKDTLMISRTPEVTCVVVDVSHEDPEVKFNWYVDGVEVHNAKTKPREEQYNSTYRVVSVLTVLHQDWLNGKEYKCKVSNKALPAPIEKTISKAKGQPREPQVYVLPPSRDELTKNQVSLLCLVKGFYPSDIAVEWESNGQPENNYLTWPPVLDSDGSFFLYSKLTVDKSRWQQGNVFSCSVMHEALHNHYTQKSLSLSPGK light 2: DIQMTQSPSSLSASVGDRVTITCKASRDVAIAVAWYQQKPGKVPKLLIYWASTRHTGVPSRFSGSGSRTDFTLTISSLQPEDVADYFCHQYSSYPFTFGSGTKLEIKRTVAAPSVFIFPPSDEELKSGTASVECLLNNFYPREAKVQWKVDNALQSGNSQESVTEQDSKDSTYSLSSTLTLSKADYEKHKVYACEVTHQGLSSPVTKSFNRGEC | – | – | 133 | 9.88 | – | – | 0.374 | < 0.01 | 254 % of Parent | 153 | 191 % of Parent | 16 | 218 % of Parent | 615
Heterodimeric bsAb 2 (bispecific antibody, human IgG1, kappa, Het-mAb format: anti-IL-23 mAb (risankizumab) on ZA and anti-IL-18 mAb on ZB, with Fc heterodimerisation and silencing mutations) heavy 1: QVQLVQSGAEVKKPGSSVKVSCKASGYTFTDQTIHWMRQAPGQGLEWIGYIYPRDDSPKYNENFKGKVTITADKSTSTAYMELSSLRSEDTAVYYCAIPDRSGYAWFIYWGQGTLVTVSSASTKGPSVFPLAPSSKSTSGGTAALGCRVKDYFPEPVTVSWNSGALTSGVHTFPAVLQSSGLYSLSSVVTVPSSSLGTQTYICNVNHKPSNTKVDKKVEPKSCDKTHTCPPCP light 1: DIQMTQSPSSLSASVGDRVTITCKASRDVAIAVAWYQQKPGKVPKLLIYWASTRHTGVPSRFSGSGSRTDFTLTISSLQPEDVADYFCHQYSSYPFTFGSGTKLEIKRTVAAPSVFIFPPSDEELKSGTASVECLLNNFYPREAKVQWKVDNALQSGNSQESVTEQDSKDSTYSLSSTLTLSKADYEKHKVYACEVTHQGLSSPVTKSFNRGEC heavy 2: QVQLVQSGAEVKKPGASVKVSCKVSGEISTGYYFHWVRQAPGKGLEWMGRIDPEDDSTKYAERFKDRVTMTEDTSTDTAYMELSSLRSEDTAVYYCTTWRIYRDSSGRPFYVMDAWGQGTLVTVSSASTKGPSVFPLAPSSKSTSGGTAALGCEVTDYFPEPVTVSWNSGALTSGVHTFPAVLESSGLYSLSSVVTVPSSSLGTQTYICNVNHKPSNTKVDKKVEPKSCDKTHTCPPCPAPELAGAPSVFLFPPKPKDTLMISRTPEVTCVVVDVSHEDPEVKFNWYVDGVEVHNAKTKPREEQYNSTYRVVSVLTVLHQDWLNGKEYKCKVSNKALPAPIEKTISKAKGQPREPQVYVLPPSRDELTKNQVSLLCLVKGFYPSDIAVEWESNGQPENNYLTWPPVLDSDGSFFLYSKLTVDKSRWQQGNVFSCSVMHEALHNHYTQKSLSLSPGK light 2: DIQMTQSPSSVSASVGDRVTITCLASEDIYTYLTWYQQKPGKAPKLLIYGANKLQDGVPSRFSGSGSGTDYTLTISSLQPEDFATYYCLQGSKFPLTFGQGTKLEIKRTVAAPSVFIFPPSDERLKSGTASVVCLLNNFYPREAKVQWKVDNALQSGNSQESVTEQDSKDSTYSLSSRLTLSKADYEKHKVYACEVTHQGLSSPVTKSFNRGEC | – | – | 77.6 | 10.1 | – | – | 0.158 | < 0.01 | 274 % of Parent | 147 | 240 % of Parent | 18.2 | 249 % of Parent | 711
